Assay results reported in patent US20220306695A1, “COMPSTATIN ANALOGUES AND THEIR MEDICAL USES” (priority 2019, published 2022).
Starred links: 1 amine or outer side, 2 acyl side, 3 side chain; linkers in the order of their positions; H or OH if unused. Positions of bridges follow the written chain, without caps; N, C: chain ends. Non-standard residues stand in square brackets, D forms with d. Groups on a side chain read outwards from the residue. *: point of attachment. C20 diacid = O=C(O)CCCCCCCCCCCCCCCCCCC(=O)*; Trp(1-Me) = Cn1cc(C[C@H](N)C(=O)O)c2ccccc21; C18 diacid = O=C(O)CCCCCCCCCCCCCCCCC(=O)*; γGlu = O=C(O)[C@H](CCC(=O)[*:2])N[*:1]; hCys = N[C@@H](CCS)C(=O)O; AEEA = NCCOCCOCC(=O)O; Sar = CNCC(=O)O

Target: Human C3 (human, UniProt P01024 23-1663)
Sequence (P01024 23-1663 limits assumed): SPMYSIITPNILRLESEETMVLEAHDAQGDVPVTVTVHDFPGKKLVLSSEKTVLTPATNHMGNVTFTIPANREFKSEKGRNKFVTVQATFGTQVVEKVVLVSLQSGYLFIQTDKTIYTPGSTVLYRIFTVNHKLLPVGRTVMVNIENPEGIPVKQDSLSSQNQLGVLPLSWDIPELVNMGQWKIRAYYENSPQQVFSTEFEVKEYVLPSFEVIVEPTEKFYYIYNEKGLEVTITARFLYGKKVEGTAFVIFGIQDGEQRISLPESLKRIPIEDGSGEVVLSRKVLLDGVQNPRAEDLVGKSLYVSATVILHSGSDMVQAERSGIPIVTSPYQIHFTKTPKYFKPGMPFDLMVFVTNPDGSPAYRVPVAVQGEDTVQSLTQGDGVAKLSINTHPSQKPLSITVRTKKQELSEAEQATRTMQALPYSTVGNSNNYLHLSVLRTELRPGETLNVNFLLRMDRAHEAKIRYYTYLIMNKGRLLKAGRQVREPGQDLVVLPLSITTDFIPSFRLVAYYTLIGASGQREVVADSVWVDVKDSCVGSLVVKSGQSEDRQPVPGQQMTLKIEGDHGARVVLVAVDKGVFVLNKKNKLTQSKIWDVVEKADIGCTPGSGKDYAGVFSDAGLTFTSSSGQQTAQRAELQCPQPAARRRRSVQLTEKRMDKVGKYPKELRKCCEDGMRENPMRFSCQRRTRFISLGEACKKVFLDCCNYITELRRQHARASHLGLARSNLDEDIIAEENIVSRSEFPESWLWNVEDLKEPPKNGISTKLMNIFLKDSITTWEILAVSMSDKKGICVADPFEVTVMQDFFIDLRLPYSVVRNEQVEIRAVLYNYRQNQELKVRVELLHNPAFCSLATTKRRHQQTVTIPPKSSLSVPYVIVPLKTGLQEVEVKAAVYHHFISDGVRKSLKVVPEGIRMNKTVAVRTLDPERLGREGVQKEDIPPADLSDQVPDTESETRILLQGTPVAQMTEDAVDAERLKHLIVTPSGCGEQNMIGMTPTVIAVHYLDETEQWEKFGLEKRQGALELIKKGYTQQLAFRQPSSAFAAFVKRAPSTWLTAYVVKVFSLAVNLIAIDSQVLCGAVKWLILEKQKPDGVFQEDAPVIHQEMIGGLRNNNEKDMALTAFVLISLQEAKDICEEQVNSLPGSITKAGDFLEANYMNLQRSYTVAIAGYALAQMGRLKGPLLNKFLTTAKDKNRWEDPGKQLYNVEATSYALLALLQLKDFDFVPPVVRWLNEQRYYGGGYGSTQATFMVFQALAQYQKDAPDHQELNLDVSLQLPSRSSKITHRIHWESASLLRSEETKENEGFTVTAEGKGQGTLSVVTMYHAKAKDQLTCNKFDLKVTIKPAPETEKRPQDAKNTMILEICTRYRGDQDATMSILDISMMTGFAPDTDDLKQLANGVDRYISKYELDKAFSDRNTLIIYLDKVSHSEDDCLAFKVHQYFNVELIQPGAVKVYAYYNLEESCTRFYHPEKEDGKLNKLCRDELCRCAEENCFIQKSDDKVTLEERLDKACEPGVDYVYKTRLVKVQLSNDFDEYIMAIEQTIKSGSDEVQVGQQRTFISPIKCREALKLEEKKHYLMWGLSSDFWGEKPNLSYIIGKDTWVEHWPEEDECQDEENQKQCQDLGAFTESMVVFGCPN
Assay: cell-based or functional assay

Row | Binder | IC50[nM], inhibition of hemolysis
1 | Ac-SEYCI[Trp(1-Me)]QDWGEHRC[Sar]EGAK([AEEA-γGlu-AEEA-Gly-γGlu-C18 diacid])-NH2 (disulfide 4-14; SMILES CC[C@H](C)[C@@H]1NC(=O)[C@@H](NC(=O)[C@H](Cc2ccc(O)cc2)NC(=O)[C@H](CCC(=O)O)NC(=O)[C@H](CO)NC(C)=O)CSSC[C@@H](C(=O)N(C)CC(=O)N[C@@H](CCC(=O)O)C(=O)NCC(=O)N[C@@H](C)C(=O)N[C@@H](CCCCNC(=O)COCCOCCNC(=O)CC[C@H](NC(=O)COCCOCCNC(=O)CNC(=O)CC[C@H](NC(=O)CCCCCCCCCCCCCCCCC(=O)O)C(=O)O)C(=O)O)C(N)=O)NC(=O)[C@H](CCCNC(=N)N)NC(=O)[C@H](Cc2c[nH]cn2)NC(=O)[C@H](CCC(=O)O)NC(=O)CNC(=O)[C@H](Cc2c[nH]c3ccccc23)NC(=O)[C@H](CC(=O)O)NC(=O)[C@H](CCC(N)=O)NC(=O)[C@H](Cc2cn(C)c3ccccc23)NC1=O) [Compound 118] | < 100 nM
2 | Ac-SEFCI[Trp(1-Me)]QEWGEHRC[Sar]EGAK([AEEA-γGlu-AEEA-Gly-γGlu-C18 diacid])-NH2 (disulfide 4-14; SMILES CC[C@H](C)[C@@H]1NC(=O)[C@@H](NC(=O)[C@H](Cc2ccccc2)NC(=O)[C@H](CCC(=O)O)NC(=O)[C@H](CO)NC(C)=O)CSSC[C@@H](C(=O)N(C)CC(=O)N[C@@H](CCC(=O)O)C(=O)NCC(=O)N[C@@H](C)C(=O)N[C@@H](CCCCNC(=O)COCCOCCNC(=O)CC[C@H](NC(=O)COCCOCCNC(=O)CNC(=O)CC[C@H](NC(=O)CCCCCCCCCCCCCCCCC(=O)O)C(=O)O)C(=O)O)C(N)=O)NC(=O)[C@H](CCCNC(=N)N)NC(=O)[C@H](Cc2c[nH]cn2)NC(=O)[C@H](CCC(=O)O)NC(=O)CNC(=O)[C@H](Cc2c[nH]c3ccccc23)NC(=O)[C@H](CCC(=O)O)NC(=O)[C@H](CCC(N)=O)NC(=O)[C@H](Cc2cn(C)c3ccccc23)NC1=O) [Compound 120] | < 250 nM
3 | Ac-ICIWQKWGAHRCTGAES-NH2 (disulfide 2-12; SMILES CC[C@H](C)[C@H](NC(C)=O)C(=O)N[C@H]1CSSC[C@@H](C(=O)N[C@H](C(=O)NCC(=O)N[C@@H](C)C(=O)N[C@@H](CCC(=O)O)C(=O)N[C@@H](CO)C(N)=O)[C@@H](C)O)NC(=O)[C@H](CCCNC(=N)N)NC(=O)[C@H](Cc2c[nH]cn2)NC(=O)[C@H](C)NC(=O)CNC(=O)[C@H](Cc2c[nH]c3ccccc23)NC(=O)[C@H](CCCCN)NC(=O)[C@H](CCC(N)=O)NC(=O)[C@H](Cc2c[nH]c3ccccc23)NC(=O)[C@H]([C@@H](C)CC)NC1=O) [Compound 8] | < 500 nM
4 | Ac-SAYCI[Trp(1-Me)]QDWGEHRC[Sar]EK([γGlu-Gly-γGlu-C18 diacid])-NH2 (disulfide 4-14; SMILES CC[C@H](C)[C@@H]1NC(=O)[C@@H](NC(=O)[C@H](Cc2ccc(O)cc2)NC(=O)[C@H](C)NC(=O)[C@H](CO)NC(C)=O)CSSC[C@@H](C(=O)N(C)CC(=O)N[C@@H](CCC(=O)O)C(=O)N[C@@H](CCCCNC(=O)CC[C@H](NC(=O)CNC(=O)CC[C@H](NC(=O)CCCCCCCCCCCCCCCCC(=O)O)C(=O)O)C(=O)O)C(N)=O)NC(=O)[C@H](CCCNC(=N)N)NC(=O)[C@H](Cc2c[nH]cn2)NC(=O)[C@H](CCC(=O)O)NC(=O)CNC(=O)[C@H](Cc2c[nH]c3ccccc23)NC(=O)[C@H](CC(=O)O)NC(=O)[C@H](CCC(N)=O)NC(=O)[C@H](Cc2cn(C)c3ccccc23)NC1=O) [Compound 106] | < 250 nM
5 | Ac-SEFCI[Trp(1-Me)]QDWGEHRC[Sar]EGE[AEEA][AEEA]K([γGlu-Gly-γGlu-C18 diacid])-NH2 (disulfide 4-14) [Compound 123] | < 100 nM
6 | SEFCIWQDWGEHRAGEGEXXK (not fully specified; N-acetyl; C-terminal amide; gamma-cystathionine (Ctt1) thioether bridge hCys4-A14 (hCys written C); W6 is 1-Me-Trp; G15 is Sar; X19 and X20 are Peg3; K21 side chain bears [17-carboxy-heptadecanoyl][γGlu]G[γGlu]) [Compound 152] | < 100 nM
7 | Ac-EGSAFCI[Trp(1-Me)]QDWGEHRC[Sar]E-NH2 (disulfide 6-16; SMILES CC[C@H](C)[C@@H]1NC(=O)[C@@H](NC(=O)[C@H](Cc2ccccc2)NC(=O)[C@H](C)NC(=O)[C@H](CO)NC(=O)CNC(=O)[C@H](CCC(=O)O)NC(C)=O)CSSC[C@@H](C(=O)N(C)CC(=O)N[C@@H](CCC(=O)O)C(N)=O)NC(=O)[C@H](CCCNC(=N)N)NC(=O)[C@H](Cc2c[nH]cn2)NC(=O)[C@H](CCC(=O)O)NC(=O)CNC(=O)[C@H](Cc2c[nH]c3ccccc23)NC(=O)[C@H](CC(=O)O)NC(=O)[C@H](CCC(N)=O)NC(=O)[C@H](Cc2cn(C)c3ccccc23)NC1=O) [Compound 53] | < 100 nM
8 | Ac-ICIWQKWGEHRCT-NH2 (disulfide 2-12; SMILES CC[C@H](C)[C@H](NC(C)=O)C(=O)N[C@H]1CSSC[C@@H](C(=O)N[C@H](C(N)=O)[C@@H](C)O)NC(=O)[C@H](CCCNC(=N)N)NC(=O)[C@H](Cc2c[nH]cn2)NC(=O)[C@H](CCC(=O)O)NC(=O)CNC(=O)[C@H](Cc2c[nH]c3ccccc23)NC(=O)[C@H](CCCCN)NC(=O)[C@H](CCC(N)=O)NC(=O)[C@H](Cc2c[nH]c3ccccc23)NC(=O)[C@H]([C@@H](C)CC)NC1=O) [Compound 7] | < 1000 nM
9 | Ac-SEFCI[Trp(1-Me)]QDWGEHRC[Sar]EGE[AEEA][AEEA]K([γGlu-Gly-γGlu-C20 diacid])-NH2 (disulfide 4-14, also called comp 128) [Compound 128] | < 100 nM
10 | SEFAIWQDWGEHRCTEGEXESK (not fully specified; N-acetyl; C-terminal amide; delta-cystathionine (Ctt2) thioether bridge A4-hCys14 (hCys written C); W6 is 1-Me-Trp; X19 is Peg3; K22 side chain bears [17-carboxy-heptadecanoyl][γGlu]) [Compound 148] | < 100 nM
11 | Ac-SEF[hCys]I[Trp(1-Me)]QDW[Sar]EHRA[Sar]EGE[AEEA]ESK([γGlu-Gly-γGlu-C18 diacid])-NH2 (thioether 4-14; SMILES CC[C@H](C)[C@@H]1NC(=O)[C@@H](NC(=O)[C@H](Cc2ccccc2)NC(=O)[C@H](CCC(=O)O)NC(=O)[C@H](CO)NC(C)=O)CCSC[C@@H](C(=O)N(C)CC(=O)N[C@@H](CCC(=O)O)C(=O)NCC(=O)N[C@@H](CCC(=O)O)C(=O)NCCOCCOCC(=O)N[C@@H](CCC(=O)O)C(=O)N[C@@H](CO)C(=O)N[C@@H](CCCCNC(=O)CC[C@H](NC(=O)CNC(=O)CC[C@H](NC(=O)CCCCCCCCCCCCCCCCC(=O)O)C(=O)O)C(=O)O)C(N)=O)NC(=O)[C@H](CCCNC(=N)N)NC(=O)[C@H](Cc2c[nH]cn2)NC(=O)[C@H](CCC(=O)O)NC(=O)CN(C)C(=O)[C@H](Cc2c[nH]c3ccccc23)NC(=O)[C@H](CC(=O)O)NC(=O)[C@H](CCC(N)=O)NC(=O)[C@H](Cc2cn(C)c3ccccc23)NC1=O) [Compound 166] | < 100 nM
